In the supplement of paper PMC10126150:
± gives the standard deviation of the averaged measurements.

Tested on: ATP
Test: switch fluorescence ratio, 500 uM ATP over buffer (Cy3 cluster intensity, sum of 5 cycles each) (fold (ratio)); higher = stronger signal-on switching upon ATP binding; sequences stand for … in TCGTCGGCAGCGTCAGATGTGTATAAGAGACAGTTTTTTTTTTTTTTTTTTTTTTTTT…TC
Details: aptamer strand: ATP DNA aptamer (quencher-CACCTGGGGGAGTATTGCGGAGGAAGG + anchor), 100 nM annealed; ATP concentration: 500 uM
Summary of the method: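 The fluorescence ratio divides summed target-cycle Cy3 intensity by summed buffer-cycle Cy3 intensity for each cluster and is averaged per switch-domain sequence. Cy3-labelled switching-strand clusters on a modified Illumina MiSeq flow-cell were annealed to 100 nM quencher-labelled ATP aptamer, then imaged in selection buffer and again after 15 min with 500 uM ATP at 22 °C. Five such cycles were run, with NaOH stripping and re-annealing between them, and clusters outside 100-1000 RFU were excluded.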
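Also: ATP exposure 15 min at 22 °C before imaging.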

Sequence | switch fluorescence ratio
TTATGAATTT | 0.98 ± 0.026
TTATGATTGT | 1.02 ± 0.03
TTATGATTTG | 1.02 ± 0.02
TTATGCCACG | 1.04 ± 0.016
TTATGCGTTT | 1.2 ± 0.28
TTATGCTTGG | 0.976 ± 0.031
TTATGGACCT | 1.331 ± 0.0094
TTATGGGAA | 1.04 ± 0.038
TTATGGGGCG | 1.02 ± 0.035
TTATGGGTCA | 0.983 ± 0.025
TTATGTGGGT | 0.989 ± 0.029
TTATGTTAGG | 0.97498 ± 0.00083
TTATGTTCGA | 1.018 ± 0.005
TTATTAAAAT | 0.997 ± 0.021
TTATTAAATC | 1.008 ± 0.0064
TTATTAAGCT | 1.01 ± 0.027
TTATTACGG | 1 ± 0.027
TTATTAGGGG | 0.983 ± 0.028
TTATTAGTGA | 0.9904 ± 0.006
TTATTATTGG | 0.986 ± 0.013
TTATTCAAAA | 1 ± 0.023
TTATTCGGTT | 0.982 ± 0.031
TTATTCGTTG | 0.99 ± 0.025
TTATTCTTGT | 1 ± 0.017
TTATTGGAAT | 1 ± 0.063

Sequence | switch fluorescence ratio
TTATTGGGGA | 0.974 ± 0.024
TTATTGGTGT | 1.01 ± 0.024
TTATTGTTAG | 0.9784 ± 0.0027
TTATTTAAAA | 1 ± 0.02
TTATTTAAAG | 1.018 ± 0.0024
TTATTTAATC | 1.01 ± 0.038
TTATTTAGCA | 0.987 ± 0.038
TTATTTCAAG | 1.01 ± 0.064
TTATTTCATT | 0.9966 ± 0.0062
TTATTTCCGG | 1.01 ± 0.028
TTATTTGGA | 0.98 ± 0.04
TTATTTGGAT | 0.9897 ± 0.005
TTATTTGGGA | 0.991 ± 0.043
TTATTTTATT | 0.998 ± 0.021
TTATTTTCAT | 1 ± 0.025
TTATTTTCGA | 0.999 ± 0.021
TTATTTTTA | 0.9699 ± 0.0017
TTATTTTTGA | 1.07 ± 0.096
TTATTTTTTG | 1 ± 0.056
TTCAAAAAGT | 0.991 ± 0.021
TTCAAAATTA | 0.9913 ± 0.0096
TTCAAAGGGT | 1.005 ± 0.0049
TTCAACATTT | 1.04 ± 0.011
TTCAACGGGG | 0.9948 ± 0.0039
TTCAACTTTT | 1.01 ± 0.056

Sequence | switch fluorescence ratio
TTCAAGGGGA | 1.06 ± 0.13
TTCAAGGTA | 1.01 ± 0.015
TTCAATCATG | 0.988 ± 0.011
TTCAATGGTT | 1.02 ± 0.035
TTCAATTTAG | 0.9954 ± 0.0042
TTCAATTTTT | 0.997 ± 0.021
TTCACAGCCA | 1.09 ± 0.043
TTCACATTTT | 0.9961 ± 0.0026
TTCACCGGGA | 0.9932 ± 0.007
TTCACTAGTG | 1.02 ± 0.035
TTCACTGATG | 1.05 ± 0.017
TTCACTGGGA | 0.9962 ± 0.00098
TTCACTGGTC | 1.019 ± 0.0011
TTCACTTAGC | 1.075 ± 0.0076
TTCAGAAAGG | 1 ± 0.023
TTCAGAAGTC | 1.01 ± 0.056
TTCAGACCGT | 1.016 ± 0.0064
TTCAGAGGGG | 0.997 ± 0.033
TTCAGAGTCA | 0.985 ± 0.042
TTCAGCAATT | 1.57 ± 0.31
TTCAGCGCGC | 1.007 ± 0.0075
TTCAGCGGGT | 0.983 ± 0.025
TTCAGCTGGG | 0.998 ± 0.022
TTCAGGATAC | 1.19 ± 0.043
TTCAGGATGT | 1 ± 0.025

Sequence | switch fluorescence ratio
TTCAGGATTT | 0.994 ± 0.038
TTCAGGCACG | 0.986 ± 0.049
TTCAGGGAGG | 1 ± 0.033
TTCAGGGGGT | 1.02 ± 0.054
TTCAGGGTTC | 0.966 ± 0.027
TTCAGTGTTT | 0.993 ± 0.023
TTCATAGGGG | 0.988 ± 0.015
TTCATAGGTT | 1.02 ± 0.012
TTCATAGTGA | 0.95 ± 0.028
TTCATATTCA | 1.01 ± 0.023
TTCATCGGCT | 1.34 ± 0.51
TTCATCGGTT | 0.9922 ± 0.0022
TTCATGTCAT | 1.01 ± 0.081
TTCATTCATT | 0.982 ± 0.015
TTCATTGTCG | 0.929 ± 0.062
TTCATTGTTA | 1.03 ± 0.049
TTCATTTTG | 1.01 ± 0.068
TTCCAAACGG | 0.989 ± 0.014
TTCCAAATTG | 0.993 ± 0.017
TTCCAAGATC | 1.18 ± 0.12
TTCCAAGGGT | 1.76 ± 1.5
TTCCAATTTG | 1 ± 0.014
TTCCACATTT | 1.12 ± 0.16
TTCCACGACT | 1.02 ± 0.025
TTCCAGCGGT | 1.03 ± 0.017

Sequence | switch fluorescence ratio
TTCCAGCTTT | 1.02 ± 0.024
TTCCAGGAGC | 0.946 ± 0.091
TTCCAGGCGT | 1.23 ± 0.055
TTCCAGTATT | 1.05 ± 0.049
TTCCATATCG | 1.03 ± 0.061
TTCCATATTT | 1.02 ± 0.026
TTCCATGGTC | 1.02 ± 0.014
TTCCATGTGT | 1.06 ± 0.044
TTCCATGTTT | 1.06 ± 0.11
TTCCATTTGC | 1.05 ± 0.074
TTCCCACCGT | 1.06 ± 0.031
TTCCGACGAT | 3.15 ± 2.3
TTCCGGATTA | 1.07 ± 0.065
TTCCGGCAAA | 1.5 ± 0.7
TTCCGGCTTT | 1.01 ± 0.033
TTCCGGGCCG | 1.03 ± 0.037
TTCCGGGCTT | 1.41 ± 0.38
TTCCGGGGGC | 1.61 ± 0.98
TTCCGGGTAC | 3.27 ± 0.22
TTCCGGTAAC | 2.07 ± 0.13
TTCCGGTGAA | 1.0572 ± 0.00078
TTCCGTGGGA | 1.06 ± 0.045
TTCCGTTTTT | 1.51 ± 0.66
TTCCTATGTT | 0.991 ± 0.056
TTCCTCAGAC | 1.6 ± 0.87

Sequence | switch fluorescence ratio
TTCCTGAAAA | 0.981 ± 0.016
TTCCTGCGCT | 1.77 ± 1
TTCCTGGTGG | 1.05 ± 0.073
TTCCTGTTTC | 1.01 ± 0.023
TTCCTTCATT | 1.04 ± 0.016
TTCCTTGTTA | 0.9973 ± 0.0052
TTCCTTTGGG | 0.964 ± 0.019
TTCGAAGGGC | 1.14 ± 0.16
TTCGAGAAGG | 0.972 ± 0.018
TTCGAGGTGC | 1.04 ± 0.05
TTCGAGTCGG | 0.967 ± 0.011
TTCGAGTTTT | 0.9669 ± 0.00099
TTCGATATTT | 0.982 ± 0.017
TTCGATGATA | 1.07 ± 0.08
TTCGATGGGG | 0.993 ± 0.048
TTCGATGTGG | 1.01 ± 0.018
TTCGATTACG | 1.03 ± 0.018
TTCGCGACTT | 0.987 ± 0.029
TTCGCGGGTG | 1.05 ± 0.025
TTCGCTCGAG | 1 ± 0.017
TTCGCTCTTT | 1.06 ± 0.025
TTCGCTGTTC | 1.28 ± 0.027
TTCGCTTTTT | 0.991 ± 0.032
TTCGGAGGAG | 1 ± 0.012
TTCGGAGGAT | 1.02 ± 0.048

Sequence | switch fluorescence ratio
TTCGGAGGCT | 1.23 ± 0.3
TTCGGATAAT | 0.98 ± 0.011
TTCGGCCCCA | 0.99 ± 0.031
TTCGGCGCCA | 1.03 ± 0.013
TTCGGCGGTG | 0.98 ± 0.045
TTCGGGAACA | 1.02 ± 0.038
TTCGGGACGC | 1.03 ± 0.053
TTCGGGATTT | 1.007 ± 0.0062
TTCGGGGAAT | 0.982 ± 0.034
TTCGGGGACG | 0.969 ± 0.052
TTCGGGGATG | 0.991 ± 0.048
TTCGGGGGAG | 0.979 ± 0.026
TTCGGGGGCA | 1.01 ± 0.052
TTCGGGGGGC | 0.961 ± 0.039
TTCGGGGTTC | 1.0029 ± 0.00079
TTCGGTACGT | 0.999 ± 0.0024
TTCGGTCACC | 1.014 ± 0.0054
TTCGGTGAAG | 1.01 ± 0.0051
TTCGGTGTGG | 1.01 ± 0.04
TTCGGTTATA | 0.986 ± 0.053
TTCGGTTGGT | 1.01 ± 0.029
TTCGGTTTGC | 1.02 ± 0.066
TTCGGTTTGT | 0.98 ± 0.032
TTCGTAAGTT | 0.99485 ± 0.00084
TTCGTAGGCA | 1.02 ± 0.042

Sequence | switch fluorescence ratio
TTCGTATACC | 0.988 ± 0.051
TTCGTATAGC | 1.03 ± 0.036
TTCGTCAGGA | 0.978 ± 0.036
TTCGTCAGTG | 0.986 ± 0.013
TTCGTGAATT | 1.11 ± 0.1
TTCGTGCTTC | 0.963 ± 0.024
TTCGTGGGGC | 1.18 ± 0.21
TTCGTGGTGT | 1.03 ± 0.015
TTCGTGGTTG | 0.967 ± 0.034
TTCGTGTGGC | 0.932 ± 0.02
TTCGTGTTAC | 1.32 ± 0.26
TTCGTGTTCT | 1 ± 0.03
TTCGTTAGAA | 1.0091 ± 0.00067
TTCGTTCGAA | 1.03 ± 0.067
TTCGTTTGGG | 0.967 ± 0.047
TTCGTTTTCG | 0.991 ± 0.029
TTCGTTTTGG | 1.01 ± 0.038
TTCGTTTTTC | 0.956 ± 0.035
TTCTAAAAAT | 1.06 ± 0.023
TTCTACACAG | 1.04 ± 0.032
TTCTAGCTAT | 1.58 ± 0.78
TTCTAGGGGT | 0.966 ± 0.012
TTCTATACCG | 0.982 ± 0.036
TTCTATTCGA | 1.008 ± 0.0058
TTCTCGGACG | 0.991 ± 0.017
